# Reference: patent US20240239863A1, “GIP RECEPTOR AGONIST AND USE THEREOF” (HANGZHOU ZHONGMEIHUADONG PHARMACEUTICAL CO., LTD., priority 2022, published 2024)
# Non-standard residues stand in square brackets, D forms with d. Residues, ends and D or L forms follow the SMILES beside them. No end group written: not given here. Aib = CC(C)(N)C(=O)O
# T1: human GIP receptor (glucose-dependent insulinotropic peptide receptor, GIPR) (human, UniProt P48546 22-466)
# T1 sequence (looked up): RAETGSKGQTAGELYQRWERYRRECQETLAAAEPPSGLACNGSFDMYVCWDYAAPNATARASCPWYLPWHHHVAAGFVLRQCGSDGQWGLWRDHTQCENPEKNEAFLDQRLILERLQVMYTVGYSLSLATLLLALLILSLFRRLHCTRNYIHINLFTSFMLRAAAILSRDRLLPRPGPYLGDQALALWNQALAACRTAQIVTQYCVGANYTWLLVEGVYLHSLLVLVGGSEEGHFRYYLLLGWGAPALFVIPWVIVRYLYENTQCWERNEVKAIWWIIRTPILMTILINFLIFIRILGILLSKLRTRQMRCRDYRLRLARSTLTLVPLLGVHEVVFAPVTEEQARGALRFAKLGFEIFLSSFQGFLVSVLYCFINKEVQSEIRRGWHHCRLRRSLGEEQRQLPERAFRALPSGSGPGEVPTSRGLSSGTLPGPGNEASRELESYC
# B1: Sequence 16 (Seq ID. 16) (peptide)
# peptide: Y[Aib]EGTFISDYSIALDRLHQEDFVNWLLAQKG
# B2: Sequence 4 (Seq ID. 4) (peptide)
# peptide: Y[Aib]EGTFISDYSIALDEIHQKDFVKWLLAQKG
# B3: Sequence 2 (Seq ID. 2) (peptide)
# peptide: Y[Aib]EGTFISDYSI[Aib]LDEIHQKDFVKWLLAQKG
# B4: Sequence 18 (Seq ID. 18) (peptide)
# peptide: Y[Aib]EGTFISDYSIALDRLHQQDFVNWLLAQKG
# B5: Sequence 17 (Seq ID. 17) (peptide)
# peptide: Y[Aib]EGTFISDYSIALDRLHQQDFVKWLLAQRG
# B6: Sequence 5 (Seq ID. 5) (peptide)
# peptide: Y[Aib]EGTFISDYSIALDEIHQKDFVNWLLAQRG
# B7: Sequence 9 (Seq ID. 9) (peptide)
# peptide: Y[Aib]EGTFISDYSIALDKIHQEDFVNWLLAQRG
# B8: Sequence 11 (Seq ID. 11) (peptide)
# peptide: Y[Aib]EGTFISDYSIALDRIHQEDFVKWLLAQRG
# B9: Sequence 15 (Seq ID. 15) (peptide)
# peptide: Y[Aib]EGTFISDYSIALDRLHQEDFVKWLLAQRG
# B10: Sequence 7 (Seq ID. 7) (peptide)
# peptide: Y[Aib]EGTFISDYSIALDKIHQQDFVNWLLAQRG
# B11: Sequence 6 (Seq ID. 6) (peptide)
# peptide: Y[Aib]EGTFISDYSIALDELHQKDFVNWLLAQRG
# B12: Sequence 14 (Seq ID. 14) (peptide)
# peptide: Y[Aib]EGTFISDYSIALDRIHQQDFVNWLLAQKG
# B13: Sequence 13 (Seq ID. 13) (peptide)
# peptide: Y[Aib]EGTFISDYSIALDRIHQQDFVKWLLAQRG
# B14: Sequence 8 (Seq ID. 8) (peptide)
# peptide: Y[Aib]EGTFISDYSIALDKLHQQDFVNWLLAQRG
# B15: Sequence 12 (Seq ID. 12) (peptide)
# peptide: Y[Aib]EGTFISDYSIALDRIHQEDFVNWLLAQKG
# B16: Sequence 10 (Seq ID. 10) (peptide)
# peptide: Y[Aib]EGTFISDYSIALDKLHQEDFVNWLLAQRG
# B17: Sequence 3 (Seq ID. 3) (peptide)
# peptide: Y[Aib]EGTFISDYSIALDKIHQEDFVKWLLAQKG
# B18: Sequence 1 (Seq ID. 1) (peptide)
# peptide: Y[Aib]EGTFISDYSI[Aib]LDKIHQEDFVKWLLAQKG
# Molecular target: hGLP-1R (Homo sapiens, UniProt P43220)
# Sequence (P43220 24-463): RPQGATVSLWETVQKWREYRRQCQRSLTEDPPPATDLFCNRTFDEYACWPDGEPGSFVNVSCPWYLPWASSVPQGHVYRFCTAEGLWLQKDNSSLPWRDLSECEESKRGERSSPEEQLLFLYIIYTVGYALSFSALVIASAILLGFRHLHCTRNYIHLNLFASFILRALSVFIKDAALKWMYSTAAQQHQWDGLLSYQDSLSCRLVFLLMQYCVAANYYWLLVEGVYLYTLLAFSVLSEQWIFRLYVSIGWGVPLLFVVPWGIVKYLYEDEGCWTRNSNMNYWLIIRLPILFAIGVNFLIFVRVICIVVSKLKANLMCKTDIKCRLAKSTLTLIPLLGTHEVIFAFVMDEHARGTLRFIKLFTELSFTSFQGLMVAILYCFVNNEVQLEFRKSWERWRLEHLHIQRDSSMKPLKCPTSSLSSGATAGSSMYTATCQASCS
# Assay: Cell agonistic activity at GLP-1 receptor (Example 7)
# Format: cell-based
row,Molecule,EC50 [nM]
1,CC[C@H](C)[C@H](NC(=O)[C@H](CO)NC(=O)[C@H](Cc1ccc(O)cc1)NC(=O)[C@H](CC(=O)O)NC(=O)[C@H](CO)NC(=O)[C@@H](NC(=O)[C@H](Cc1ccccc1)NC(=O)[C@@H](NC(=O)CNC(=O)[C@H](CCC(=O)O)NC(=O)C(C)(C)NC(=O)[C@@H](N)Cc1ccc(O)cc1)[C@@H](C)O)[C@@H](C)CC)C(=O)N[C@@H](C)C(=O)N[C@@H](CC(C)C)C(=O)N[C@@H](CC(=O)O)C(=O)N[C@@H](CCCNC(=N)N)C(=O)N[C@H](C(=O)N[C@@H](Cc1c[nH]cn1)C(=O)N[C@@H](CCC(N)=O)C(=O)N[C@@H](CCC(N)=O)C(=O)N[C@@H](CC(=O)O)C(=O)N[C@@H](Cc1ccccc1)C(=O)N[C@H](C(=O)N[C@@H](CC(N)=O)C(=O)N[C@@H](Cc1c[nH]c2ccccc12)C(=O)N[C@@H](CC(C)C)C(=O)N[C@@H](CC(C)C)C(=O)N[C@@H](C)C(=O)N[C@@H](CCC(N)=O)C(=O)N[C@@H](CCCCN)C(=O)NCC(=O)O)C(C)C)[C@@H](C)CC [Sequence 14] (H-Y[Aib]EGTFISDYSIALDRIHQQDFVNWLLAQKG-OH; N-terminus and C-terminus assumed),> 0.1
2,CC[C@H](C)[C@H](NC(=O)[C@H](CO)NC(=O)[C@H](Cc1ccc(O)cc1)NC(=O)[C@H](CC(=O)O)NC(=O)[C@H](CO)NC(=O)[C@@H](NC(=O)[C@H](Cc1ccccc1)NC(=O)[C@@H](NC(=O)CNC(=O)[C@H](CCC(=O)O)NC(=O)C(C)(C)NC(=O)[C@@H](N)Cc1ccc(O)cc1)[C@@H](C)O)[C@@H](C)CC)C(=O)N[C@@H](C)C(=O)N[C@@H](CC(C)C)C(=O)N[C@@H](CC(=O)O)C(=O)N[C@@H](CCCNC(=N)N)C(=O)N[C@H](C(=O)N[C@@H](Cc1c[nH]cn1)C(=O)N[C@@H](CCC(N)=O)C(=O)N[C@@H](CCC(=O)O)C(=O)N[C@@H](CC(=O)O)C(=O)N[C@@H](Cc1ccccc1)C(=O)N[C@H](C(=O)N[C@@H](CC(N)=O)C(=O)N[C@@H](Cc1c[nH]c2ccccc12)C(=O)N[C@@H](CC(C)C)C(=O)N[C@@H](CC(C)C)C(=O)N[C@@H](C)C(=O)N[C@@H](CCC(N)=O)C(=O)N[C@@H](CCCCN)C(=O)NCC(=O)O)C(C)C)[C@@H](C)CC [Sequence 12] (H-Y[Aib]EGTFISDYSIALDRIHQEDFVNWLLAQKG-OH; N-terminus and C-terminus assumed),> 0.1
3,CC[C@H](C)[C@H](NC(=O)[C@H](CO)NC(=O)[C@H](Cc1ccc(O)cc1)NC(=O)[C@H](CC(=O)O)NC(=O)[C@H](CO)NC(=O)[C@@H](NC(=O)[C@H](Cc1ccccc1)NC(=O)[C@@H](NC(=O)CNC(=O)[C@H](CCC(=O)O)NC(=O)C(C)(C)NC(=O)[C@@H](N)Cc1ccc(O)cc1)[C@@H](C)O)[C@@H](C)CC)C(=O)N[C@@H](C)C(=O)N[C@@H](CC(C)C)C(=O)N[C@@H](CC(=O)O)C(=O)N[C@@H](CCCNC(=N)N)C(=O)N[C@@H](CC(C)C)C(=O)N[C@@H](Cc1c[nH]cn1)C(=O)N[C@@H](CCC(N)=O)C(=O)N[C@@H](CCC(=O)O)C(=O)N[C@@H](CC(=O)O)C(=O)N[C@@H](Cc1ccccc1)C(=O)N[C@H](C(=O)N[C@@H](CC(N)=O)C(=O)N[C@@H](Cc1c[nH]c2ccccc12)C(=O)N[C@@H](CC(C)C)C(=O)N[C@@H](CC(C)C)C(=O)N[C@@H](C)C(=O)N[C@@H](CCC(N)=O)C(=O)N[C@@H](CCCCN)C(=O)NCC(=O)O)C(C)C [Sequence 16] (H-Y[Aib]EGTFISDYSIALDRLHQEDFVNWLLAQKG-OH; N-terminus and C-terminus assumed),> 0.1
4,CC[C@H](C)[C@H](NC(=O)[C@H](CCCCN)NC(=O)[C@H](CC(=O)O)NC(=O)[C@H](CC(C)C)NC(=O)C(C)(C)NC(=O)[C@@H](NC(=O)[C@H](CO)NC(=O)[C@H](Cc1ccc(O)cc1)NC(=O)[C@H](CC(=O)O)NC(=O)[C@H](CO)NC(=O)[C@@H](NC(=O)[C@H](Cc1ccccc1)NC(=O)[C@@H](NC(=O)CNC(=O)[C@H](CCC(=O)O)NC(=O)C(C)(C)NC(=O)[C@@H](N)Cc1ccc(O)cc1)[C@@H](C)O)[C@@H](C)CC)[C@@H](C)CC)C(=O)N[C@@H](Cc1c[nH]cn1)C(=O)N[C@@H](CCC(N)=O)C(=O)N[C@@H](CCC(=O)O)C(=O)N[C@@H](CC(=O)O)C(=O)N[C@@H](Cc1ccccc1)C(=O)N[C@H](C(=O)N[C@@H](CCCCN)C(=O)N[C@@H](Cc1c[nH]c2ccccc12)C(=O)N[C@@H](CC(C)C)C(=O)N[C@@H](CC(C)C)C(=O)N[C@@H](C)C(=O)N[C@@H](CCC(N)=O)C(=O)N[C@@H](CCCCN)C(=O)NCC(=O)O)C(C)C [Sequence 1] (H-Y[Aib]EGTFISDYSI[Aib]LDKIHQEDFVKWLLAQKG-OH; N-terminus and C-terminus assumed),> 0.1

# Molecular target: T1, human GIP receptor (glucose-dependent …)
# Assay: cell-based or functional assay
row,Molecule,"EC50(pM), cell agonistic activity (cAMP, HTRF) [pM]"
1,B1,25.5
2,B2,2.87
3,B3,10.7
4,B4,16.9
5,B5,58.2
6,B6,6.12
7,B7,16.4
8,B8,3.44
9,B9,27.2
10,B10,6.04
11,B11,7.93
12,B12,18.4
13,B13,36.2
14,B14,11.7
15,B15,0.81
16,B16,1.63
17,B17,3.41
18,B18,2.38

# Molecular target: human GLP-1 receptor (human, UniProt P43220 24-463)
# Assay: cell-based or functional assay
row,Molecule,"EC50(pM), cell agonistic activity [pM]"
1,B1,> 100
2,B2,> 100
3,B3,> 100
4,B4,> 100
5,B5,> 100
6,B6,> 100
7,B7,> 100
8,B8,> 100
9,B9,> 100
10,B10,> 100
11,B11,> 100
12,B12,> 100
13,B13,> 100
14,B14,> 100
15,B15,> 100
16,B16,> 100
17,B17,> 100
18,B18,> 100
